# From the supplement of paper PMC10567573
# B1: SNX8 (parent)
# chain: VVLKLFLSFSGSDVQNKLKESAQC
# Variants of: B1
# Experiment: protein stability index of a GFP-peptide fusion (GPS, HEK-293T) (PSI 1-6); higher = more stable
# Conditions: c terminus: a fixed tail appended
# 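Also: lentivirally expressed fusions sorted by FACS into six bins by GFP to DsRed ratio, PSI derived from sequencing read proportions per bin multiplied by bin number.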
row,Variant,protein stability index
1,VVLKLFLSFSGSDVFNKLKESAQC,3.49
2,VVLKLFLSFSGSDVYNKLKESAQC,3.96
3,VVLKLFLSFSGSDVDNKLKESAQC,1.8
4,VVLKLFLSFSGSDVCNKLKESAQC,4.88
5,VVLKLFLSFSGSDVNNKLKESAQC,2.9
6,VVLKLFLSFSGSDVMNKLKESAQC,4.13
7,VVLKLFLSFSGSDVTNKLKESAQC,3.35
8,VVLKLFLSFSGSDVQNYLKESAQC,3.54
9,VVLKLFLSFSGSDVQNTLKESAQC,3.29
10,VVLKLFLSFSGSDVQNWLKESAQC,4.7
11,VVLKLFLSFSGSDVQNLLKESAQC,3.46
12,VVLKLFLSFSGSDVQNALKESAQC,1.72
13,VVLKLFLSFSGSDVQNVLKESAQC,2.59
14,VVLKLFLSFSSSDVQNKLKESAQC,2.41
15,VVLKLFLSFSVSDVQNKLKESAQC,3.28
16,VVLKLFLSFSASDVQNKLKESAQC,2.33
17,VVLKLFLSFSHSDVQNKLKESAQC,2.62
18,VVLKLFLSFSLSDVQNKLKESAQC,3.09
19,VVLKLFLSFSFSDVQNKLKESAQC,3.55
20,VVLKLFLSFSRSDVQNKLKESAQC,3.97
21,VVLKLFLSFSISDVQNKLKESAQC,2.14
22,VVLKLFLSFSQSDVQNKLKESAQC,1.77
23,VVLKLFLSFSYSDVQNKLKESAQC,2.42
24,VVLKLFLSFSCSDVQNKLKESAQC,1.74

row,Variant,protein stability index
1,VVLKLFLSFSESDVQNKLKESAQC,3.17
2,VVLKLFLSFSDSDVQNKLKESAQC,2.11
3,VVLKLFLSFSGSTVQNKLKESAQC,2.28
4,VVLKLFLSFSGSQVQNKLKESAQC,3.33
5,VVLKLFLSFSGSCVQNKLKESAQC,2.1
6,VVLKLFLSFSGSFVQNKLKESAQC,2.07
7,VVLKLFLSFSGSHVQNKLKESAQC,3.62
8,VVLKLFLMFSGSDVQNKLKESAQC,4.24
9,VVLKLFLRFSGSDVQNKLKESAQC,1.92
10,VVLKLFLWFSGSDVQNKLKESAQC,2.64
11,VVLKLFLPFSGSDVQNKLKESAQC,5.05
12,VVLKLFLAFSGSDVQNKLKESAQC,1.77
13,VVLKLFLGFSGSDVQNKLKESAQC,1.91
14,VVLKLFLLFSGSDVQNKLKESAQC,2.45
15,VVLKLFLSFSGSDVQRKLKESAQC,2.84
16,VVLKLFLSFSGSDVQFKLKESAQC,2.04
17,VVLKLFLSFSGSDVQQKLKESAQC,4.03
18,VVLKLFLSFSGSDVQAKLKESAQC,2.02
19,VVLKLFLSFSGSDVQWKLKESAQC,3.64
20,VVLKLFLSFSGSDVQGKLKESAQC,1.35
21,VVLKLFLSFSGSDVQHKLKESAQC,1.75
22,VVLKLFLSFSGSDVQKKLKESAQC,2.2
23,VVLKLFLSFSGSDVQIKLKESAQC,2.64
24,VVLKLFLSFSGSDVQNKAKESAQC,2.7

row,Variant,protein stability index
1,VVLKLFLSFSGSDVQNKIKESAQC,2.58
2,VVLKLFLSFSGSDVQNKCKESAQC,3.48
3,VVLKLFLSFSGSDVQNKQKESAQC,4.56
4,VVLKLFLSFSGSDVQNKGKESAQC,4.32
5,VVLKLFLSFSGSDVQNKRKESAQC,1.5
6,VVLKLFLSFSGSDVQNKTKESAQC,2.13
7,VVLKLFLSFSGSDVQNKWKESAQC,1.93
8,VVLKLFLSFSGSDVQNKMKESAQC,4.11
9,VVLKLFLSFSGSDVQNKFKESAQC,2.86
10,VVLKLFLSFSGSDVQNKEKESAQC,2.26
11,VVLKLFLSFSGSDTQNKLKESAQC,2.53
12,VVLKLFLSFSGSDDQNKLKESAQC,2.3
13,VVLKLFLSFSGSDYQNKLKESAQC,2.62
14,VVLKLFLSFSGSDNQNKLKESAQC,1.99
15,VVLKLFLSFSGSDAQNKLKESAQC,2.43
16,VVLKLFLSFSGSDSQNKLKESAQC,4.53
17,VVLKLFLSFSGSDEQNKLKESAQC,1.91
18,VVLKLFLSFSGSDKQNKLKESAQC,1.82
19,VVLKLFLSFSGSDHQNKLKESAQC,1.59
20,VVLKLFLSFSGSDVQNKLQESAQC,5.1
21,VVLKLFLSFSGSDVQNKLAESAQC,4.92
22,VVLKLFLSFSGSDVQNKLGESAQC,3.41
23,VVLKLFLSFSGSDVQNKLIESAQC,2.23
24,VVLKLFLSFSGSDVQNKLFESAQC,2.79

row,Variant,protein stability index
1,VVLKLFLSFSGSDVQNKLPESAQC,3.75
2,VVLKLFLSFSGSDVQNKLMESAQC,2.37
3,VVLKLFLSFSGSDVQNKLNESAQC,2.76
4,VVLKLFLSFSGWDVQNKLKESAQC,3.39
5,VVLKLFLSFSGADVQNKLKESAQC,2.2
6,VVLKLFLSFSGLDVQNKLKESAQC,1.37
7,VVLKLFLSFSGNDVQNKLKESAQC,2.13
8,VVLKLFLSFSGIDVQNKLKESAQC,2.62
9,VVLKLFLSFSGKDVQNKLKESAQC,3.15
10,VVLKLFLSFSGDDVQNKLKESAQC,3.29
11,VVLKLFLSFSGHDVQNKLKESAQC,1.9
12,VVLKLFLSFSGTDVQNKLKESAQC,3.29
13,VVLKLFLSFSGPDVQNKLKESAQC,3.58
14,VVLKLFLSFSGQDVQNKLKESAQC,3.23
15,VVLKLFLSFSGYDVQNKLKESAQC,4.07
16,VVLKLFLSFSGMDVQNKLKESAQC,1.72
17,QVLKLFLSFSGSDVQNKLKESAQC,4.24
18,WVLKLFLSFSGSDVQNKLKESAQC,1.04
19,TVLKLFLSFSGSDVQNKLKESAQC,2.48
20,YVLKLFLSFSGSDVQNKLKESAQC,2.69
21,SVLKLFLSFSGSDVQNKLKESAQC,3.54
22,NVLKLFLSFSGSDVQNKLKESAQC,1.36
